# Assay: yeast display, Sf9 membrane polyspecificity reagent, FACS + sequencing; frameworks hold sequencing errors
# In short: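 A synthetic nanobody library was expressed on Saccharomyces cerevisiae BJ5465 by galactose induction for 36–48 hours. The library was stained for 1 hour at 4 °C with 10% biotinylated, detergent-solubilized Sf9 membrane reagent and enriched with streptavidin microbeads before FACS. Low and high (top ~1%) gates were set on anti-HA fluorescence for expression and streptavidin fluorescence for reagent binding, and each polyreactivity label reflects the gate of origin.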
row,Sequence,polyreactivity (PSR sort gate)
1,QVQLVESGGGLLQAGGSRRIRCAASGRIFWVYAMGWYRKAPGKERELVAAISSTGDGTYYADSVKVRFTISRDNAKNSVYLEMNSLKPDDTAVYYCAADFRVARSPLSGGSDFWGQGTQVTVSS,low polyreactivity
2,QVQLVESGGGLLQAGVSLRLSCASSGRIIDRNAMGWYRQAPGKERELVAAISSSGSTNYADSVKGRFTISRDNAKNTVYLQMNSLKPEDTAVYYCDARWRSVLAAGTRPVSFDYWGQGTQVTVSS,low polyreactivity
3,QVQLVESGGGLVEAGGSLRISCAASGFIFGPYAMGWYRQAPGKERELVAASWRGGSTYYADSVKGRFTISRDNAKNTVYLQMNSLKPEDTAVYYCAADVIYSLYYYWGQGTQVTVSS,low polyreactivity
4,QVQLVESGGGLVEAGGSLRISCAASGYIFLRNAMGWYRQAPGKERELVAAIRRTGGSTYYADSVKGRFTISRDNAKNSVYVQMNSLKPEASAVYYCAKRSYTGYEYWGQGNQVTVSS,low polyreactivity
5,QVQLVESGGGLVEAGGSLRLSCAASGAIFQYAMGWYRQAPGKERELVAGITYRGSTYYADSVKGRFTISRDNAKNTVYLQMNSMKPEDTAVYDCAALQRGFGYRPRRWSYDYWGQGTQVTVSS,high polyreactivity
6,QVQLVESGGGLVEAGGSLRLSCAASGNIFVNYAMEWYRQAPGKERELVAAISWSGGSTYYADSVKGRFTISRDNAKNTVYLQINRLKAEDTAVYYCAADYTGHLYYYWVQGTQVTVSS,low polyreactivity
7,QVQLVESGGGLVEAGGSLRLSCAASGRTFANNAMGWYRQAPGKERELVARISNSGSTNYADSVKGRFTISRDNANNTVYLQMNSLNPEDTAVYYCAARIVRLYSRYDYWGQGTQVTVSS,low polyreactivity
8,QVQLVESGGGLVEAGGSLRLSCAASGSIFAVNTMGWYRKAPGKERELVASITRGGSTNYADSVKGRFAISRDNAKKSVYLQMNSQKPEDSAVYYCAARPTWWYDYWGQGNQVTVSS,high polyreactivity
9,QVQLVESGGGLVEAGGSLRLSCAASGSIFGNYALGWYRQAPGKERELVAAITSSNGNTYNADSVKGRFTISRDTAKNTVYFQMNSLKPEDTAVYYCATDSWSPYLQTIFYYWGHGTQVTVSS,low polyreactivity
10,QVQLVESGGGLVEAGGSLRLSCAASGSIFSYNAMGWYRQAPGKERELVAAITDGGDRTYYADSVKGRFTISRDNAKNTVYLLMNSLIPEATAVYYCAAELYSYREDYGAHFAYEYWGQGTQVTVSS,low polyreactivity
11,QVQLVESGGGLVEAGGSLRLSCAASGSILYYNAMGWYRQAPGKERELVAAISTRGGSTYYADSVKGRFTSSRDNAKKTVYLQMNSLKPEDTAVYYCAADHNVIWGYYYWGQGTQVTVSS,high polyreactivity
12,QVQLVESGGGLVEAGGSLRLSCAASGSTFGSNAMGWYRQGPGKARELVARISKRGGSTYYADSVKGRFTISRDKAKNTVSIQINSLKPDDTAVYYCNVRSWWGYTGPYDYWRQGTQVTVSS,high polyreactivity
13,QVQLVESGGGLVEAGGSLRLSCAASGTFVYNAMGWYIQAPGKERELVAAISWSGSSTYADSVKGRFTISRDNAKNTVYLQMNSLKPEDTAVYYCAADGYGYNTYQQYYKKSSYWGQGTQVSVSS,low polyreactivity
14,QVQLVESGGGLVEGGGSLRLSCAASGFTFGRYTMGWYRQATGKERELVAAISWSGGSTYYADSVKGRFTISRDNAKNTVYLQLNSLKQEDTAVYNCATRLKSVSGGYNYWGQGTQVTVSS,high polyreactivity
15,QVQLVESGGGLVHAGCSLRLSCAASGFFFDYNAMGWYRQAPGKERELVAAISISGGGTYYADSVKGRFTISRDNAKNTVYLQKNSLKPEDTAVYYCAAAGIGGGGWGQGTQVTVSS,low polyreactivity
16,QVQLVESGGGLVHAGGCLRLSCAASGRNFYYYTMGWSRQEPGKERELVASISRSGDRTYYADSVKGRFTISRDYAKNTVYLQMNSLKPEDTAVYYCNAQKYPRYSRTSGRNYFFWGQGTQVTVSS,high polyreactivity
17,QVQLVESGGGLVHAGGILRLSCAASGRTFPYYAMGWYRQAPGKERELVAAISSSGGGTYYADSVKGRFTISRDTAKNTVYLQMNSLKPEDTAVYYCNAVSYYQDSFYYWGQGTQVTVSS,high polyreactivity
18,QVQLVESGGGLVHAGGRLRLSCPPSGRIFSYYTMGWYRQAPGKERELVAAISRGVSTNYADSVKGRFTISRDNAKNTVYLQMNSLKPEYSAVYYCNARHTWYYKYLHEYWGQGTQVTVSS,high polyreactivity
19,QVQLVESGGGLVHAGGSHRLSCAASGRTFPGYPMGWYIPAPGTERELVAGISYRGGSTYFADSVKGRFTISRDNAKNTVYLQMNSLKPEDTAVYFCARDYSRHKGDYWGQGTQGTVSS,low polyreactivity
20,QVQLVESGGGLVHAGGSLLLSCAASGSTLRPNAMGWYRKAPGKERELVDAISSGGSTYYADSVKGRFTISRDNAKYSVYLQMNSLKPEDTAVYSCAAASERSGYYYWGQGTQVTVSS,high polyreactivity
21,QVQLVESGGGLVHAGGSLRLICAGSGFTFRGYAMGWYRQAPGKEMELVADITSGGSTYYADSVKGRFTISRDNAKNTVYLQMNSLKPEDTAVYYCAPRQRSRSRYDYWGQGTQVTVSS,high polyreactivity

row,Sequence,polyreactivity (PSR sort gate)
1,QVQLVESGGGLVHAGGSLRLSCAAPGRTSRYYVMGWYRQAPGKERELVAAISKNGGSTYYADSVKGRFTISRDNAKNTVYLQMNSLKPEDTAVYFCAASYYPFSYGHGYDYWGQGTQVTVSS,high polyreactivity
2,QVQLVESGGGLVHAGGSLRLSCAASGFIFYYNAMGWYRHAPGKERELVAGISRSAGSTYYADSVKGRFTISRDNAKNSVYLQMNSLKPEDTAVDYCAARYLSYITGTSYYWGQVTQVTVSS,low polyreactivity
3,QVQLVESGGGLVHAGGSLRLSCAASGFNFIVYAMGWYRQAPGKERELVASITYSGGGTYYADSVKGRFTISRDNAKNTVYLQMNSLIPEDTAVYYCNADVSWSYSVYREYGMDYWGQGTQVTVSS,low polyreactivity
4,QVQLVESGGGLVHAGGSLRLSCAASGFTFAYNAMGWYRQAPGKERELVAAIRRRGGITYYADSVKGRFTISRDNAKNTVYLQMNSLKPEDTAVYYCNAVRSYPAGYDSWGQGTQVTVSS,low polyreactivity
5,QVQLVESGGGLVHAGGSLRLSCAASGFTFDSNDKGWYRQAPGKERELVAAISTGGSTYYADSVKGRFTISRDNAKNTVYLQMNRLKPEDTAVYYCARDPPYPDTWYGYWGQGSQVTVSS,low polyreactivity
6,QVQLVESGGGLVHAGGSLRLSCAASGFTFGGYAKGWYIQAPGKERELVAAISQSGGRTYYADSVKGRFTISRDHAKNTFYLQMNSLKPEDTAVYYCAKPSTTYYQRGDYWGQGTQVTVSS,high polyreactivity
7,QVQLVESGGGLVHAGGSLRLSCAASGFTFGGYALGWYRQAPGKERELVAAITGSGGNTFYADSVKGRFTISRDNAKNTVYLQMNSLKPEDTAVYYCAKTWYPWSRYGYYRRYDSWGQGTQVTVSS,low polyreactivity
8,QVQLVESGGGLVHAGGSLRLSCAASGFTFGGYAMGWYRQAPGIEREFVAAISSSGGRTYYADSVKRRFTISRDNAKNTVYLPMNSLKPEDTAVYDCNVGQYLRARRPVDSWGQGTQVSVSS,high polyreactivity
9,QVQLVESGGGLVHAGGSLRLSCAASGGTFTYYTMGWYRKAPGKERELVARISKNGGRTYYADSVKGRFTLSRDNAKNTLYLKMISLKPEDTAVYYCNAAGRPYDFSGGRTMEYWGQGTQVTVST,high polyreactivity
10,QVQLVESGGGLVHAGGSLRLSCAASGIIFDDYAMGWNRQAPGKERELVAAIRSGVSTNYADSVKGRFTISRDNAKNTVYLQMNSLKPEDTAVYYCAARNTAPYFTEYDYWGQGTQVTVSS,low polyreactivity
11,QVQLVESGGGLVHAGGSLRLSCAASGITYSRYAMGWYRQAPGKERELVAAITWDGGRTYYADTVKGRFTISRDIAKNTVYLQMNSVKPEDTAVYYCAAGSAWWYYWGQGTQVTVSS,high polyreactivity
12,QVQLVESGGGLVHAGGSLRLSCAASGLIFKTYTMGWYRQAPGKEREFVAAITTSGGSTYYADSVKGRFTISRDNAKNTDYVEMNRLKPEETAVYFCAAEGYTDATQSLFYYWGQGTQVTVSS,high polyreactivity
13,QVQLVESGGGLVHAGGSLRLSCAASGLTFDWYTMGWYRQAPGKERELVATINSGGSTDYADSVKGRFTISRDNAKNTVYLQMNSLKPEDTAVYYCNAEYGYSGVGDDYWGQGTQVTVSS,low polyreactivity
14,QVQLVESGGGLVHAGGSLRLSCAASGNIFKRNAMGWYRQAHGKERELVAAISGSGVRTYYADSVKGRFTISRDNAKNSVYLQMNSLKPEDTAVYYCNAEIRYSAWNWLSYEYWGQGTQVTVSS,high polyreactivity
15,QVQLVESGGGLVHAGGSLRLSCAASGNTFIRYAIGWYRQARGTQRELVASITKRCGSTYYADSVKGRFTISRDNAKNTVYLQMNCLKPEDTAVYYCDRGPSGTPIGNTPYGDNRYNSWGEGTQVTVSS,low polyreactivity
16,QVQLVESGGGLVHAGGSLRLSCAASGRIFGTNAMGWYIQAPGKERELVATITRGGGNTYYADSVKVRFTISRDHAMNTVDLQMNSLKPEDTAVYYCNVDYGVHVPPRDYWGQGTQVTVSS,low polyreactivity
17,QVQLVESGGGLVHAGGSLRLSCAASGRIFQVYAMGWYRQAPGKERELVAAISARGGSTYYADSVKGRFTISRDNAKNTVYLQMNSLKPEDTAVYYCAARSAYGTQRLYYWGQGTQVTVSS,high polyreactivity
18,QVQLVESGGGLVHAGGSLRLSCAASGRIFTSYVMGWYRQAPAKERELVAAITRSGGSTYYADSVKGRFTISRDNAKNTVYLQMISLKPEDTAVYYCNALTRRQKGGEGGGYWGQGTQVTVSS,high polyreactivity
19,QVQLVESGGGLVHAGGSLRLSCAASGRIFTWNAMGWYRQAPGKERELVARISSGTRTNYADSVKGRFTISRDNAKNTVYLQMNSLKPEDTAVYYCAAGYYYGYPPRDYWGQGTQVTVSS,high polyreactivity
20,QVQLVESGGGLVHAGGSLRLSCAASGRIFVRNDMGCYRQAPGKERELVAAISWDGGSTYYADSVKGRFTISRDNAKNTVYLQMNSLKPEDTAVYYCATDATRPWYDYWGQGTQVTVSS,low polyreactivity

# — the nanobody polyreactivity screen of Harvey et al. (2022)
